Consider four molecules from publication PMC9482650, “Quantitative fragmentomics allow affinity mapping of interactomes” (Nature Communications, 2022).

Common to all, as to assay: holdup assay
Set-up in all cases: key: below the threshold = too weak to quantify, mostly under pKd 3.1 to 4

Assay [1] has as its target T1, PTPN13_4, Q12923.
T1 sequence (Q12923 1783-1878, limits assumed, looked up): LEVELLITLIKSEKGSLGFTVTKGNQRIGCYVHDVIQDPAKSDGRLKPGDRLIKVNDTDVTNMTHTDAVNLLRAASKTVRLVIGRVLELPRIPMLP

The target in assay [2] is T2, SYNPO2L, Q9H987.
T2 sequence (Q9H987 1-98, limits assumed, looked up): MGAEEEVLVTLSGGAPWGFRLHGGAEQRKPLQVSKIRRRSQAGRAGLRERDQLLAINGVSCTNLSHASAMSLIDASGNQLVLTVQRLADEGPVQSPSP

The target of assay [3] is PDZRN4_2, Q6ZMN7.
The target in assay [4] is T3, PDZRN3_2, Q9UPQ7.
T3 sequence (Q9UPQ7 414-513, limits assumed, looked up): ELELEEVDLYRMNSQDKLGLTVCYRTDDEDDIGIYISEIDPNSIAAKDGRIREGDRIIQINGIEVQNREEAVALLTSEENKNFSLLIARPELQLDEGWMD
The following applies: plain residues with an end cap or a label only (N-terminal biotin on a linker: (peg)3).

Assay [5] addresses MAGI3_6, Q5TCQ9.
For assay [6], the target named is T4, SHROOM2, Q13796.
T4 sequence (Q13796 21-118, limits assumed, looked up): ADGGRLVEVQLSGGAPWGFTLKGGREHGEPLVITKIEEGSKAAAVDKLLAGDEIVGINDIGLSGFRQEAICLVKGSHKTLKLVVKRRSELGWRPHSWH

Assay [7] deals with PARD3B_3, Q8TEW8.
Assay [8] concerns the target PARD3_1, Q8TEW0.
The target in assay [9] is T5, PREX2_2, Q70Z35.
T5 sequence (Q70Z35 672-764, limits assumed, looked up): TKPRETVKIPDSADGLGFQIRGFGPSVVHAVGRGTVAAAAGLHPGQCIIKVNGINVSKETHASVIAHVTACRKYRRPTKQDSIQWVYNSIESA

The target of assay [10] is T6, SHROOM3, Q8TF72.
T6 sequence (Q8TF72 20-120, limits assumed, looked up): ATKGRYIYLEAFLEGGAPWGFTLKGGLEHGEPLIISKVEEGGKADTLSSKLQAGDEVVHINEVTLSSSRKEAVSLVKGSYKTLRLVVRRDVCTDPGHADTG

In assay [11] the target is MAST3, O60307.
Assay [12] concerns the target T7, TJP3_2, O95049.
T7 sequence (O95049 190-282, limits assumed, looked up): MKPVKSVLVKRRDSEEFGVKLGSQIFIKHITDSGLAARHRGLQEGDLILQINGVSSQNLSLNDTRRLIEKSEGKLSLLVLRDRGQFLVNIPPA

For assay [13], the target named is T8, INTU, Q9ULD6.
T8 sequence (Q9ULD6 180-273, limits assumed, looked up): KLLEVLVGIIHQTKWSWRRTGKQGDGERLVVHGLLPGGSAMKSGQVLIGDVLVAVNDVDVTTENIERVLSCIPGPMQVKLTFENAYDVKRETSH
The note with it: plain residues with an end cap or a label only (N-terminal biotin on a linker: (peg)3).

Assay [14] addresses T9, PDZD2_5, O15018.
T9 sequence (O15018 2617-2716, limits assumed, looked up): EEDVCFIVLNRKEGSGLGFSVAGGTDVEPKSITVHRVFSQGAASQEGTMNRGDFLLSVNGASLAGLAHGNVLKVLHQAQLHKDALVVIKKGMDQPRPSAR

In assay [15] the target is T10, PDZD2_3, O15018.
T10 sequence (O15018 581-682, limits assumed, looked up): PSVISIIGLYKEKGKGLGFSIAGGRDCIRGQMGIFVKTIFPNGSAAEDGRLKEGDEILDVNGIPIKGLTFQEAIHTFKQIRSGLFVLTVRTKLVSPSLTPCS

Assay [16] has as its target T11, TJP3_1, O95049.
T11 sequence (O95049 6-103, limits assumed, looked up): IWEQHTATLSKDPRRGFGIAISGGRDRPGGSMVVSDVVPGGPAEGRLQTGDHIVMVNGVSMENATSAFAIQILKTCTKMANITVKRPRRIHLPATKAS

For assay [17], the target named is T12, LNX2_4, Q8N448.
T12 sequence (Q8N448 595-690, limits assumed, looked up): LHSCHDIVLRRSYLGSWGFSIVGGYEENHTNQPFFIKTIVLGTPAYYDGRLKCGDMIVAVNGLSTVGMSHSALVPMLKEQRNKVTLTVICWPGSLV

Assay [18] concerns the target DVL2, O14641. The following applies: plain residues with an end cap or a label only (N-terminal biotin on a linker: (peg)3).
For assay [19], the target named is T13, LNX2_1, Q8N448.
T13 sequence (Q8N448 228-328, limits assumed, looked up): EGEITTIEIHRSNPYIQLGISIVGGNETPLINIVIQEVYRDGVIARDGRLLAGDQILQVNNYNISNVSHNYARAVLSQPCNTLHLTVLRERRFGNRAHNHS

For assay [20], the target named is T14, MAGI2_1, Q86UL8.
T14 sequence (Q86UL8 12-111, limits assumed, looked up): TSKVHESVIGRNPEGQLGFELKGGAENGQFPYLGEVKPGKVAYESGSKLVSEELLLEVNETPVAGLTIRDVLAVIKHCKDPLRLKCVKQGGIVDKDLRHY

For assay [21], the target named is T15, APBA3_2, O96018.
T15 sequence (O96018 480-570, limits assumed, looked up): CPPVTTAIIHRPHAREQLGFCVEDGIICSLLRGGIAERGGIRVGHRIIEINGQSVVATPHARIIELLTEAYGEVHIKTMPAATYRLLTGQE

The mark [22] stands for this setting: plain residues with an end cap or a label only (N-terminal biotin on a linker: (peg)3).
The mark [23] stands for this setting: modified: phospho on T at position -2 from the C-terminal residue.

Chain of PARD3B_3, Q8TEW8 (Q8TEW8 490-594): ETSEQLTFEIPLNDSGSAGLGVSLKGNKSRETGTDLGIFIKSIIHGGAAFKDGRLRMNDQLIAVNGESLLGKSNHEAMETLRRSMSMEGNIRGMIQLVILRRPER
Chain of MAST3, O60307 (O60307 945-1048): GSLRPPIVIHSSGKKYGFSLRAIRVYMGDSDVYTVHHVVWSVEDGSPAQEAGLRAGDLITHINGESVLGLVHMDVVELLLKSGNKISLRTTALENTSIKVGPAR
Chain of MAGI3_6, Q5TCQ9 (Q5TCQ9 1014-1103): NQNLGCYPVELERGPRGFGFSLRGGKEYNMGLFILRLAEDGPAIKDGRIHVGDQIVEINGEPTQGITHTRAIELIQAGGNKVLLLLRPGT
Chain of DVL2, O14641 (O14641 260-359): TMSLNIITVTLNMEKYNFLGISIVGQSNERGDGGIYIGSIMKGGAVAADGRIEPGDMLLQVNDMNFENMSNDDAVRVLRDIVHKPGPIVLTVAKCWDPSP
Chain of PARD3_1, Q8TEW0 (Q8TEW0 264-372): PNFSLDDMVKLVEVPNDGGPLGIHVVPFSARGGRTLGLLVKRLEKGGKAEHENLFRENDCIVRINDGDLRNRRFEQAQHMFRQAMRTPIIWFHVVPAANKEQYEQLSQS
Chain of PDZRN4_2, Q6ZMN7 (Q6ZMN7 389-498): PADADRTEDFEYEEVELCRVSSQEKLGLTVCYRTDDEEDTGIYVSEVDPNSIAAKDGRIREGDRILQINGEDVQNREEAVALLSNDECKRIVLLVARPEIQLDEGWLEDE

B1: SARS-Cov2-N, P0DTC9 (peptide)
chain: QQSMSSADSTQA
For the molecule B1, the pKd entry in assay [1] (setting [22]), in assay [2] (setting [22]), in assay [3] (setting [22]), in assay [4], in [5] (setting [22]) and in assay [6] (setting [22]) was “below the threshold” throughout. Moreover, the pKd result in assay [7] (setting [22]), in assay [8] (setting [22]), in assay [9] (setting [22]), in [10] (setting [22]), in [11] (setting [22]) and in [12] (setting [22]) was “below the threshold” in each case. Moreover, the pKd entry in [13], in [14] (setting [22]), in [15] (setting [22]), in assay [16] (setting [22]), in assay [17] (setting [22]) and in assay [18] was “below the threshold” each time. The pKd result in [19] (setting [22]), in [20] (setting [22]) and in [21] (setting [22]) was “below the threshold” each time.

B2: HPV16-E6_-2P, P03126 (peptide)
chain: SSRTRRETQL
Take B2: the pKd result was “below the threshold” in assay [1] (setting [23]); “below the threshold” in [2] (setting [23]); 4.26 in [3] (setting [23]); “below the threshold” in [5] (setting [23]); “below the threshold” in [6] (setting [23]); “below the threshold” in [7] (setting [23]). Moreover, the pKd result in assay [8] (setting [23]), in assay [9] (setting [23]), in assay [10] (setting [23]), in assay [11] (setting [23]), in [12] (setting [23]) and in assay [14] (setting [23]) was “below the threshold” in each case. Further, the negative-log Kd (pKd) result in assay [15] (setting [23]), in assay [16] (setting [23]), in [17] (setting [23]), in assay [19] (setting [23]), in assay [20] (setting [23]) and in assay [21] (setting [23]) was “below the threshold” throughout.

B3: WNV-NS5, Q9Q6P4 (peptide)
chain: RYEDTTLVEDTVL
In the case of B3, the pKd result in assay [1] (setting [22]) is “below the threshold”; in assay [2] (setting [22]), “below the threshold”; in assay [3] (setting [22]), “below the threshold”; in [4], “below the threshold”; in assay [5] (setting [22]) it was “below the threshold”; in assay [6] (setting [22]), 4.14. For the same molecule, the pKd in assay [7] (setting [22]) was 4.05; in assay [8] (setting [22]), “below the threshold”; in assay [9] (setting [22]) it was “below the threshold”; in assay [10] (setting [22]), “below the threshold”; in [11] (setting [22]), “below the threshold”; in assay [12] (setting [22]), 4.25. In addition, the pKd entry in assay [13], in assay [14] (setting [22]), in [15] (setting [22]), in assay [16] (setting [22]), in assay [17] (setting [22]) and in assay [18] was “below the threshold” in each case. Moreover, the negative-log Kd (pKd) entry in assay [19] (setting [22]), in [20] (setting [22]) and in assay [21] (setting [22]) was “below the threshold” throughout.

B4: HBV-HBc, P03193 (peptide)
chain: RRRRSQSRESQC
With B4, the negative-log Kd (pKd) entry in assay [1] (setting [22]), in [2] (setting [22]), in assay [3] (setting [22]), in assay [4], in assay [5] (setting [22]) and in assay [6] (setting [22]) was “below the threshold” throughout. In addition, the pKd entry in assay [7] (setting [22]), in [8] (setting [22]), in assay [9] (setting [22]), in assay [10] (setting [22]), in assay [11] (setting [22]) and in assay [12] (setting [22]) was “below the threshold” each time. In addition, the pKd entry in assay [13] is “below the threshold”; in [15] (setting [22]) it was “below the threshold”; in assay [16] (setting [22]), “below the threshold”; in assay [17] (setting [22]) it was 3.9; in assay [18] it was “below the threshold”; in assay [19] (setting [22]), “below the threshold”. Moreover, the negative-log Kd (pKd) result in assay [20] (setting [22]) and in assay [21] (setting [22]) was “below the threshold” each time.

The pKd is −log10 of the Kd, conventionally taken in molar units.
